T1: SNTG2, Q9NY99
T1 sequence (Q9NY99 68-166, limits assumed, looked up): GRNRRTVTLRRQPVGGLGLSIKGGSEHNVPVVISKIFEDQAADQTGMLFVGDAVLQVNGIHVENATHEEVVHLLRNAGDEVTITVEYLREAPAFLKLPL

T2: LNX2_3, Q8N448
T2 sequence (Q8N448 463-564, limits assumed, looked up): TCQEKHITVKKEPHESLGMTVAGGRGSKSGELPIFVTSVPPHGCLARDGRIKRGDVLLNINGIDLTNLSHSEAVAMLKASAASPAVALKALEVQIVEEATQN

T3: GRIP1_2, Q9Y3R0
T3 sequence (Q9Y3R0 145-248, limits assumed, looked up): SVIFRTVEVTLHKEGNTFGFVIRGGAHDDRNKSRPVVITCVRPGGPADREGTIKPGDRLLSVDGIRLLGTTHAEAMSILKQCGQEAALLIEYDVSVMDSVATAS

T4: CARD11, Q9BXL7
T4 sequence (Q9BXL7 662-765, limits assumed, looked up): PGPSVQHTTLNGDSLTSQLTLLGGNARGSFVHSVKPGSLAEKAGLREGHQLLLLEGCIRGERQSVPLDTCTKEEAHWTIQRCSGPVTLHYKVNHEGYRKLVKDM

T5: MPP6, Q9NZW5
T5 sequence (Q9NZW5 125-219, limits assumed, looked up): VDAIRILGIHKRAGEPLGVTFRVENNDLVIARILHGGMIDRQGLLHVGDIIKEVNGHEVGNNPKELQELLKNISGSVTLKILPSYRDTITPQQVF

T6: MPP2, Q14168
T6 sequence (Q14168 180-250, limits assumed, looked up): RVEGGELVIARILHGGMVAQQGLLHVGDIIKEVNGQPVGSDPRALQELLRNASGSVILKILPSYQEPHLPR

T7: MPP7, Q5T2T1
T7 sequence (Q5T2T1 134-230, limits assumed, looked up): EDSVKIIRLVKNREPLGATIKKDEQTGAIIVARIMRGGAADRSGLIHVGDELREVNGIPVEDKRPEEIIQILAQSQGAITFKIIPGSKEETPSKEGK

T8: RHPN1, Q8TCX5
T8 sequence (Q8TCX5 508-602, limits assumed, looked up): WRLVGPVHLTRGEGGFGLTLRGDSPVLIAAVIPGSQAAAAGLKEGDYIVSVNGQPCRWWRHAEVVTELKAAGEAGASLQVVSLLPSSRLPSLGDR

T9: DLG3_3, Q92796
T9 sequence (Q92796 374-475, limits assumed, looked up): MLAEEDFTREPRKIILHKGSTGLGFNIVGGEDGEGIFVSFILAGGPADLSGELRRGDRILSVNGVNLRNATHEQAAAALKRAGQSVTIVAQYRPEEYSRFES

T10: DLG3_2, Q92796
T10 sequence (Q92796 221-321, limits assumed, looked up): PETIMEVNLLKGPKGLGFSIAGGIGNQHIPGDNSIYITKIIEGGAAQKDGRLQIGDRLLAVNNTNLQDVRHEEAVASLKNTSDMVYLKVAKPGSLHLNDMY

T11: SIPA1L2, Q9P2F8
T11 sequence (Q9P2F8 945-1036, limits assumed, looked up): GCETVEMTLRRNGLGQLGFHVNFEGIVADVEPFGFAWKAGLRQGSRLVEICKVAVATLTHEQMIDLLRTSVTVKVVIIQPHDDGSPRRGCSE


What was measured:
Assay in all cases: holdup assay
Set-up in all cases: key: below the threshold = too weak to quantify, mostly under pKd 3.1 to 4
Conditions in all cases: plain residues with an end cap or a label only (N-terminal biotin on a linker: ado-ado)
[1] = molecular target: GRIP2_4, Q9C0E4
[2] = molecular target: PDLIM1, O00151
[3] = molecular target: IL16_4, Q14005
[4] = molecular target: GRIP2_5, Q9C0E4
[5] = molecular target: Inadl_4, Q8NI35
[6] = molecular target: PTPN3, P26045
[7] = molecular target: T1, SNTG2, Q9NY99
[8] = molecular target: T2, LNX2_3, Q8N448
[9] = molecular target: TJP2_1, Q9UDY2
[10] = molecular target: T3, GRIP1_2, Q9Y3R0
[11] = molecular target: T4, CARD11, Q9BXL7
[12] = molecular target: T5, MPP6, Q9NZW5
[13] = molecular target: SCRIB_3, Q14160
[14] = molecular target: T6, MPP2, Q14168
[15] = molecular target: ARHGEF12, Q9NZN5-2
[16] = molecular target: T7, MPP7, Q5T2T1
[17] = molecular target: T8, RHPN1, Q8TCX5
[18] = molecular target: T9, DLG3_3, Q92796
[19] = molecular target: FRMPD2_2, Q68DX3
[20] = molecular target: T10, DLG3_2, Q92796
[21] = molecular target: NHERF4_1, Q86UT5-2
[22] = molecular target: SCRIB_1, Q14160
[23] = molecular target: GIPC2, Q8TF65
[24] = molecular target: T11, SIPA1L2, Q9P2F8
[25] = molecular target: NOS1, P29475
[26] = molecular target: GRIP2_7, Q9C0E4
Chain of GRIP2_7, Q9C0E4 (Q9C0E4 934-1023): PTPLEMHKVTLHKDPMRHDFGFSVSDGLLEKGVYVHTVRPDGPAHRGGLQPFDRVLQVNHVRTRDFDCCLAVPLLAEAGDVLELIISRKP

Chain of ARHGEF12, Q9NZN5-2 (Q9NZN5 other isoform, or with tags, fused parts or gaps): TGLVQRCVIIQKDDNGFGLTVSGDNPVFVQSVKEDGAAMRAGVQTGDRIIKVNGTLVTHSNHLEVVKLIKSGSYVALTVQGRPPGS
Chain of TJP2_1, Q9UDY2 (Q9UDY2 24-128): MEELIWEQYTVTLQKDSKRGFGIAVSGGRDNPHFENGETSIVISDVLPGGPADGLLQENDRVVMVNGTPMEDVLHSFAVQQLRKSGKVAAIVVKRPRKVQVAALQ
Chain of FRMPD2_2, Q68DX3 (Q68DX3 944-1038): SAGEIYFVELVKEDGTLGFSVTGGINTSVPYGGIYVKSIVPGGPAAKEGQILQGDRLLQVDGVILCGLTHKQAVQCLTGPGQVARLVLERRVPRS
Chain of Inadl_4, Q8NI35 (Q8NI35 547-651): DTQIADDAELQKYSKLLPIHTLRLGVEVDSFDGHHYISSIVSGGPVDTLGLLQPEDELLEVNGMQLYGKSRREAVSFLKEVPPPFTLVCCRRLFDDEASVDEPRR
Chain of PTPN3, P26045 (P26045 505-587): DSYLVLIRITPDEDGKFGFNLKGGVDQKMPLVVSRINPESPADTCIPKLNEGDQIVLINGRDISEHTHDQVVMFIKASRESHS
Chain of NHERF4_1, Q86UT5-2 (Q86UT5 other isoform, or with tags, fused parts or gaps): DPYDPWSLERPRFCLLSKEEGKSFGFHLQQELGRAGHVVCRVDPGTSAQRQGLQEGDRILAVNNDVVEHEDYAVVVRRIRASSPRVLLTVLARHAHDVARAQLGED
Chain of NOS1, P29475 (P29475 9-101): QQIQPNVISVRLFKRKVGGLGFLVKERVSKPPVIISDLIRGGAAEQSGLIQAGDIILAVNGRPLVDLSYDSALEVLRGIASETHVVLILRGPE
Chain of PDLIM1, O00151 (O00151 1-87): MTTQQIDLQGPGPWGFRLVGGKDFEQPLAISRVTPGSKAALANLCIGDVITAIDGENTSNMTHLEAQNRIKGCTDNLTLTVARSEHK
Chain of SCRIB_1, Q14160 (Q14160 718-814): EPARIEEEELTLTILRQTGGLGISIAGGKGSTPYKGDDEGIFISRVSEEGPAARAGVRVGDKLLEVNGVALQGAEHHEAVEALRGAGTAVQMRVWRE
Chain of IL16_4, Q14005 (Q14005 1229-1329): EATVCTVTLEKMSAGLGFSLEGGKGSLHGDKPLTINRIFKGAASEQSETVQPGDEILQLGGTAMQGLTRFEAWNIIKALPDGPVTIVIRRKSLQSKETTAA
Chain of SCRIB_3, Q14160 (Q14160 999-1103): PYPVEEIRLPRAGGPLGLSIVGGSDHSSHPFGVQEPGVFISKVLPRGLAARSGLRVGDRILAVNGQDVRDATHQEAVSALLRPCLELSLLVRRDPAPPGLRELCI
Chain of GIPC2, Q8TF65 (Q8TF65 112-203): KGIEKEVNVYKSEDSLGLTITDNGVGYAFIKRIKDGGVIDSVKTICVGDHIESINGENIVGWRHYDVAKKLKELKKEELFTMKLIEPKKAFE
Chain of GRIP2_4, Q9C0E4 (Q9C0E4 446-548): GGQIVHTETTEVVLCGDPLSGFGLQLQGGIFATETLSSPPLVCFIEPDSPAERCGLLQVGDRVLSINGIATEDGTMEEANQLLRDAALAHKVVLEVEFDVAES
Chain of GRIP2_5, Q9C0E4 (Q9C0E4 544-642): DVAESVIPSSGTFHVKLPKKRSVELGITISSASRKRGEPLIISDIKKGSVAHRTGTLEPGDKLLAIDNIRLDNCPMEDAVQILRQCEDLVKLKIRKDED

| Binder | pKd [1] | pKd [2] | pKd [3] | pKd [4] | pKd [5] | pKd [6] | pKd [7] | pKd [8] | pKd [9] | pKd [10] | pKd [11] | pKd [12] | pKd [13] | pKd [14] | pKd [15] | pKd [16] | pKd [17] | pKd [18] | pKd [19] | pKd [20] | also measured |
| --- | --- | --- | --- | --- | --- | --- | --- | --- | --- | --- | --- | --- | --- | --- | --- | --- | --- | --- | --- | --- | --- |
| REVVMRVTTV [MARCHF9, Q86YJ5] | below the threshold | below the threshold | 3.53 | below the threshold | below the threshold | 4.91 | 4.65 | below the threshold | 3.92 | below the threshold | below the threshold | 3.63 | 4.43 | below the threshold | 4.8 | below the threshold | 3.91 | 4.64 | 4.11 | 5.23 | pKd [21]: 3.47; pKd [22]: 4.72; pKd [23]: below the threshold; pKd [24]: below the threshold; pKd [25]: 3.76; pKd [26]: below the threshold |
| VISERNSTTV [C3AR1, Q16581] | below the threshold | below the threshold | below the threshold | below the threshold | below the threshold | 4.01 | 3.61 | below the threshold | below the threshold | below the threshold | below the threshold | below the threshold | 3.62 | below the threshold | 4.33 | below the threshold | 4.16 | below the threshold | below the threshold | 4.42 | pKd [21]: below the threshold; pKd [22]: 3.72; pKd [23]: below the threshold; pKd [24]: below the threshold; pKd [25]: below the threshold; pKd [26]: below the threshold |

More lines, main results first:

| pKd [1] | pKd [2] | pKd [3] | pKd [4] | pKd [5] | pKd [6] | pKd [7] | pKd [8] | pKd [9] | pKd [10] | pKd [11] | pKd [12] | pKd [13] | pKd [14] | pKd [15] | pKd [16] | pKd [17] | pKd [18] | pKd [19] | pKd [20] | Binder | also measured |
| --- | --- | --- | --- | --- | --- | --- | --- | --- | --- | --- | --- | --- | --- | --- | --- | --- | --- | --- | --- | --- | --- |
| below the threshold | below the threshold | below the threshold | below the threshold | below the threshold | 4.22 | below the threshold | below the threshold | below the threshold | below the threshold | below the threshold | 3.75 | 3.98 | below the threshold | 4.03 | below the threshold | 4.04 | below the threshold | below the threshold | below the threshold | WRSKRTDTLL [RAMP3, O60896] | pKd [21]: 4.33; pKd [22]: 3.92; pKd [23]: below the threshold; pKd [24]: below the threshold; pKd [25]: 3.89; pKd [26]: below the threshold |
| below the threshold | below the threshold | below the threshold | 3.48 | below the threshold | 4.85 | 4.69 | below the threshold | below the threshold | below the threshold | below the threshold | below the threshold | 4.81 | below the threshold | 4.02 | below the threshold | 4.66 | 3.88 | 4.83 | 4.85 | QELLEYETTV [XKR7, Q5GH72] | pKd [21]: below the threshold; pKd [22]: 4.41; pKd [23]: 4.38; pKd [24]: below the threshold; pKd [25]: below the threshold; pKd [26]: below the threshold |
